Laboratory results reported in patent US20140302517A1 (SAMSUNG ELECTRONICS, published 2014).
Residue numbers refer to the chain shown, from its start.

B1: EW28 (antibody, human IgG1, lambda, V domains shown)
VH: EVQLLESGGGLVQTGGSLRLSCAVSGFTFSDYAMSWVRQAPGKGLEWVSAISSGDGNTYYADSVKGRFTISRDNSKNTLYLQMNSLRAEDTAVYYCARYLGTTSDEPASYSNGMDVWGQGTLVTVSS
VL: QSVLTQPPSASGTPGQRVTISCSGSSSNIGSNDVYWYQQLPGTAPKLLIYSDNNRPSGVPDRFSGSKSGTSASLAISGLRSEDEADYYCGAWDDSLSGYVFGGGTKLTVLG
B2: huAbF46-H4-A1 (IgG2 Fc) (antibody, V domains shown)
VH: EVQLVESGGGLVQPGGSLRLSCAASGFTFTDYYMSWVRQAPGKGLEWLGFIRNKANGYTTEYSASVKGRFTISRDNSKNTLYLQMNSLRAEDTAVYYCARDNWFAYWGQGTLVTVSS
VL: DIQMTQSPSSLSASVGDRVTITCKSSQSLLASGNQNNYLAWYQQKPGKAPKMLIIWASTRVSGVPSRFSGSGSGTDFTLTISSLQPEDFATYYCQQSYSRPYTFGQGTKVEIKR
notes: It was biotinylated in some assays; also called anti-c-Met antibody; biotinylated anti-c-Met antibody
B3: HAL 8-7 (antibody, human IgG1, kappa, V domains shown)
VH: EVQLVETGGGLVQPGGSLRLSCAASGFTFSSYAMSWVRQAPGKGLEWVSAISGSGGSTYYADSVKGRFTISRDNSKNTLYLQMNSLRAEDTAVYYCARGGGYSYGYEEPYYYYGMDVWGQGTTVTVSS
VL: AIQLTQSPLSLSVSAGEKVTMSCKSSQSLLNSGNQKNDLAWYQQKPGQRPKLLIYGASTRESGVPDRFTGSGSGTDFTLTISSVQAEDLAVYYCQNDHSYPLTFGAGTKLEIKR
B4: AbF46 (antibody, V domains shown)
VH: EVKLVESGGGLVQPGGSLRLSCATSGFTFTDYYMSWVRQPPGKALEWLGFIRNKANGYTTEYSASVKGRFTISRDNSQSILYLQMDTLRAEDSATYYCARDNWFAYWGQGTLVTVSA
VL: DILMTQSPSSLTVSAGEKVTMSCKSSQSLLASGNQNNYLAWHQQKPGRSPKMLIIWASTRVSGVPDRFIGSGSGTDFTLTINSVQAEDLAVYYCQQSYSAPLTFGAGTKLELK
notes: Mouse monoclonal antibody from a hybridoma; tested as hybridoma culture supernatant in the selection ELISA; also called mouse antibody AbF46; monoclonal antibody of hybridoma KCLRF-BP-00220
B5: HAL 7-2 (antibody, human IgG1, lambda, V domains shown)
VH: QVQLVQSGAEVKKPGSSVKVSCKASGGTFSSYAISWVRQAPGQGLEWMGGIIPIFGTANYAQKFQGRVTITADESTSTAYMELSSLRSEDTAVYYCARDRNSYYEEPMYYFDYWGQGTLVTVSS
VL: QAGLTQPPSVSVSPGQTASITCSGDKLGDRYVFWYQQKPGQAPVLVVHDDSDRPSGIPERFSGSNSGDTATLTISRVEAGDEADYYCQVWDSVNDHPVFGGGTKLTVLG
B6: HAL 7-5 (antibody, human IgG1, lambda, V domains shown)
VH: B5 VH with S16A
VL: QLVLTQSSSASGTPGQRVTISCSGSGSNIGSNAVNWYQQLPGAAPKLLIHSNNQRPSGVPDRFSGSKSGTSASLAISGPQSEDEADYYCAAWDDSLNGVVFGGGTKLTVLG
B7: EW01 (antibody, human IgG1, lambda, V domains shown)
VH: EVQLLESGGGLVQPGGSLRLSCAVSGFTFSDYYMSWVRQAPGKGLEWVSGIYSSSSNIYYADSVKGRFTISRDNSENTLYLQMNSLRAEDTAVYYCAKALGNQENEPTSYSNGMDVWGQGTLVTVSS
VL: QSVLTQPPSASGTPGQRVTISCSGSSSNIGNNSVYWYQQLPGTAPKLLIYSDSQRPSGVPDRFSGSKSGTSASLAISGLRSEDEADYYCGTWDYSLNGYVFGGGTKLTVLG
notes: also called anti-idiotype antibody EW01; EW01 antibody
B8: EW06 (antibody, human IgG1, lambda, V domains shown)
VH: EVQLLESGGGLVQPGGSLRLSCAASGFTFSGYDMSWVRQAPGKGLEWVSGISHGDGNIYYADSVKGRFTISRDNSKNTLYLQMNSLRAEDTAVYYCAKVGLLFVQEEPSYYNAMDVWGQGTLVTVSS
VL: B7 VL with S23T, N31S, S33N, Y35T, D52N, Q54H, E84G, Y94D
B9: EW10 (antibody, human IgG1, lambda, V domains shown)
VH: EVQLLESGGGLVQPGGSLRLSCAASGFTFSGYDMSWVRQAPGKGLEWVSGISYNGGSKYYADSVKGRFTISRDNSKNTLYLQMNSLRAEDTAVYYCAKYLLPVLEEPGYSADGMDVWGQGTLVTVSS
VL: B7 VL with S23T, N31S, S33Y, Y35S, Q38R, Q54N, G90A, Y94A, N97S, G98A
B10: EW03 (antibody, human IgG1, lambda, V domains shown)
VH: EVQLLESGGGLVQPGGSLRLSCAASGFTFSDYDMSWVRQAPGKGLEWVSLISYGGSNTYYADSVKGRFTISRDNSKNTLYLQMNSLRAEDTAVYYCAKFRSEFNENEPSSYYGMDVWGQGTLVTVSS
VL: B7 VL with S33D, Y35T, Q54N, Y94S, N97S, G98A
B11: EW16 (antibody, human IgG1, lambda, V domains shown)
VH: EVQLLESGGGLVQPGGSLRLSCAASGFTFSDYYMSWVRLAPGKGLEWVSAISHSSGNTYYADSVKGRFTISRDNSKNTLYLQMNSLRAEDTAVYYCAKHLGAQSDEPDSSSNGMDVWGQGTLVTVSS
VL: B7 VL with S23T, S33D, Q54N, V59I, Y94D
B12: EW37 (antibody, human IgG1, lambda, V domains shown)
VH: EVQLLESGGGLVQPGGSLRLSCAASGFTFSNYSMSWVRQAPGKGLEWVSSISSSGGNTYYADSVKGRFTISRDNSKNTLYLQMNSLRAEDTAVYYCARVHLYFDYWGQGTLVTVSS
VL: B7 VL with N31S, Y35N, Q54H, T91S, Y94D, N97S
B13: EW26 (antibody, human IgG1, lambda, V domains shown)
VH: EVQLLESGGGLVQPGGSLRLSCAASGFTFSNYAMSWVRQAPGKGLEWVSAIYPGGGNTYYADSVKGRFTISRDNSKNTLYLQMNSLRAEDTAVYYCAKSLSTHSVDEPSSDNAMDVWGQGTLVTVSS
VL: B7 VL with S23T, N31S, Y35S, S51D, Q54N, G90A, T91S, G98A
B14: EW02 (antibody, human IgG1, lambda, V domains shown)
VH: B12 VH with S33A, R87G, R98K, V99Y, L101S, Y102V
VL: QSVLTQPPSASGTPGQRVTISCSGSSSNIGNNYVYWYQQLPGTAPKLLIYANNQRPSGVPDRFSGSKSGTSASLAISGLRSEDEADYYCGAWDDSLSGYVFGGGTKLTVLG
notes: also called EW02 antibody
B15: EW09 (antibody, human IgG1, lambda, V domains shown)
VH: B12 VH with N31D, S33D, S53Y, S54G, N57S, T58I, V93M, V99D, H100A, L101A
VL: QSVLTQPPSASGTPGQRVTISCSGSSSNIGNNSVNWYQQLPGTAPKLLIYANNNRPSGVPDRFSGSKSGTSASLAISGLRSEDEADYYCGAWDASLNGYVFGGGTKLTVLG
B16: HAL 7-7 (antibody, human IgG1, lambda, V domains shown)
VH: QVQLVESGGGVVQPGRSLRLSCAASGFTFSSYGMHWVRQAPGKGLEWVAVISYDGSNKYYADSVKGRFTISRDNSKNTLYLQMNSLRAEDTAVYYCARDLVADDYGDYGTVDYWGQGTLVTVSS
VL: QSVLTQPPSVSMAPGQTARITCGGNNIATKGVHWYQQKAGQAPVLVVYDDSGRPSGIPDRFSGSKSGNTATLTISRVEAGDEADYYCQLWDGRSDQVLFGGGTKLTVLG
B17: HAL 7-12 (antibody, human IgG1, lambda, V domains shown)
VH: QLQLQESGGGLVQPGGSLRLSCAASGFTFSSYAMSWVRQAPGKGLEWVSAISGSGGSTYYADSVEGRFTISRDNSKNTLYLQMNSLRAEDTAVYYCAKERLEEPGFFDYWGQGTLVTVSS
VL: QSALTQPASVSGSPGQSITISCTGTSSDVGGYNYVSWYQQHPGKAPKLMIYEVSNRPSGVSNRFSGSKSGNTASLTISGLQAEDEAHYYCSSYTTDNAWVFGGGTQLTVLG

Legend:
[1] = target: B2; assay: bridging ELISA: plate coated with anti-c-Met antibody, anti-idiotype antibody, biotinylated anti-c-Met antibody as detector
Method: (§1) The antibodies prepared in Example 1 above were produced in 293 F cells (invitrogen), purified and quantified to adjust their concentration, and then used for the following tests. The quantification of the purified antibodies was performed using a Nano-drop machine, and numerals reflecting A280/A260 absorption values were used. The quantification results were confirmed again through SDA-PAGE procedures. […] After blocking, the plates were washed with a PBST (0.05% Tween20 in PBS) and then treated with the anti-idiotype antibodies prepared in example 1 at 10-fold serial dilution concentrations (10 μg/ml, 1 μg/ml, 0.1 μg/ml, and 0.01 μg/ml) starting from 10 μg/ml, respectively to react at a room temperature for one hour. After the reaction was complete, the plates were washed again with a microplate washer (Biotek ELx405, PBST).
(§2) For color development, the plates were treated with TMB (3,3,5,5-tetramethylbenzidine) which is a HRP substrate, and absorption was measured at 450 nm.

[2] = target: T1, c-Met protein (358-MT/CF, RND systems) (UniProt P08581 25-932); assay: ELISA, 'Pre-existing Experiment (0.1% serum)': plate coated with c-Met protein; anti-c-Met antibody titrated 3-fold from 1 ug/ml in monkey serum diluted to 0.1%; Abs450
T1 construct: Bought reagent, known only by its catalogue number; also called antigen c-Met protein
T1 sequence (P08581 25-932 limits assumed): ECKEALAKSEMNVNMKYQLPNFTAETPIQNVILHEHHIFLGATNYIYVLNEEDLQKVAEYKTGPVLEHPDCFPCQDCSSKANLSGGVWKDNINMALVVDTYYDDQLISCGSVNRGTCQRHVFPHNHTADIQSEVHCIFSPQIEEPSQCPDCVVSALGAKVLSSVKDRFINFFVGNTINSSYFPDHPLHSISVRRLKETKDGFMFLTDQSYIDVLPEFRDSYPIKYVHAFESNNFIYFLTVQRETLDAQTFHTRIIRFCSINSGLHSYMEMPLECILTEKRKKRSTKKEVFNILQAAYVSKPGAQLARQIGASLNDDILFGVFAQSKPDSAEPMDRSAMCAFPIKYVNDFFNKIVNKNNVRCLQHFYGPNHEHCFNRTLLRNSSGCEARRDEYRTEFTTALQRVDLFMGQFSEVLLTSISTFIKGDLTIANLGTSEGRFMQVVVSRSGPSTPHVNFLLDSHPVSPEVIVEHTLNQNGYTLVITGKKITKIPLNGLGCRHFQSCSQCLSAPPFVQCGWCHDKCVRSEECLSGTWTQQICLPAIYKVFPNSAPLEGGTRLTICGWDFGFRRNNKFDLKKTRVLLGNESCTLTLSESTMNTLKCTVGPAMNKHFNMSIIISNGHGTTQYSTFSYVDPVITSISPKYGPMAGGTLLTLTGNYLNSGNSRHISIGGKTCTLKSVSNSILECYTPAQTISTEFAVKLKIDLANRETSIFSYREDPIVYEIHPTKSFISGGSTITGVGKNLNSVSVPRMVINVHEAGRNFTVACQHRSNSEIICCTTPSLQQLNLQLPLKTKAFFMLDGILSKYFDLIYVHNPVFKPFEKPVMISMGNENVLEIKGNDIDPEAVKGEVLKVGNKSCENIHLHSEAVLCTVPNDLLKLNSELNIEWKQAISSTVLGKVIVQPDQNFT

[3] = target: B14; assay: sandwich ELISA: capture EW02 0.25 ug/ml; anti-c-Met antibody titrated 3-fold from 1 (ug/ml per paragraph 273, axis prints no unit) in 10% human serum; detector EW01-biotin 0.25 ug/ml, streptavidin-HRP; absorbance at 450 nm
Description: Finally, the plates were washed with a washing solution (PBST (0.05% Tween20 in PBS)) to eliminate unreacted HRP and then, they were subject to color development using a TMB substrate to measure absorption at 450 nm.

[4] = target: B7; assay: sandwich ELISA: plate coated with EW01 0.25 ug/ml; anti-c-Met antibody titrated 3-fold from 1 ug/ml in cynomolgus monkey serum (10% per paragraph 268; the sheet's title prints 0.1% serum); detector biotinylated EW01 0.25 ug/ml, streptavidin-HRP; Abs450
Method: After the reaction of the detection antibody was over, the same washing procedures as above were carried out, and a HRP-streptavidin solution (BioLegend) was added thereto to react at a room temperature for one hour. After all the reactions were over, the plates were finally washed and treated with a TMB substrate for color development, and absorption was measured at 450 nm and analyzed.

[5] = target: T2, human c-Met/Fc fusion protein (R&D Systems) (human, UniProt P08581 25-932); assay: ELISA, hybridoma culture on plates coated with human c-Met/Fc fusion protein
T2 construct: Bought; also called human c-Met/Fc protein; not shown: Fc part
T2 sequence (P08581 25-932 limits assumed): as above
Method: The antibody that remained unbound was removed by washing.
The hybridoma cell culture obtained in Reference Example 1.1.2 was added in an amount of 50 μL to each well of the plates and incubated for 1 hour. The cells remaining unreacted were washed out with a sufficient amount of Tris-buffered saline and Tween 20 (TBST). Goat anti-mouse IgG-horseradish peroxidase (HRP) was added to the plates and incubated for 1 hour at room temperature. The plates were washed with a sufficient amount of TBST, followed by reacting the peroxidase with a substrate (OPD). Absorbance at 450 nm was measured on an ELISA reader.

[6] = target: B2; assay: bridging ELISA: plate coated with anti-c-Met antibody 1 ug/ml; anti-idiotype antibody at 0.01 to 10 (ug/ml per paragraph 258, axis prints no unit); detection with biotinylated anti-c-Met antibody 200 ng/ml and avidin-HRP; absorbance at 450 nm
Method: as §1, §2

[7] = target: B2; assay: SPR (Biacore)

binding result [1] | other results | Binder
binds |  | B1
 | EC50 (read off the curve) [2]: ~0.03 µg/mL; binding result [3]: binds; EC50 (read off the curve) [4]: ~0.02 µg/mL | B2
binds |  | B3
 | binding result [5]: binds | B4
binds |  | B5
binds |  | B6
 | binding result [6]: binds | B7
binds |  | B8
binds |  | B9
binds |  | B10
binds |  | B11
binds |  | B12
binds |  | B13
 | Kd [7]: 38.4 nM; koff [7]: 0.0032 s⁻¹; kon [7]: 85000 M⁻¹ s⁻¹ | B14
binds |  | B15
binds |  | B16
binds |  | B17
